Columns and labels:
[1] = target: T1, HLA-A*02:01 / … complex (HLA-PEPTIDE target G8) on cells (human); experiment: cell-based or functional assay
CD3 on CD3+ Jurkat cells = target: T2, CD3 on CD3+ Jurkat cells; experiment: flow cytometry, Format 41 bispecific on CD3+ Jurkat cells
T2 construct: whole, on cells

[2] = target: T1, HLA-A*02:01 / … complex (HLA-PEPTIDE …); experiment: flow cytometry, Format 41 bispecific on A375 cells expressing ~300,000 copies of the pHLA 10mer
[3] = target: T3, biotinylated pHLA: HLA subtype A*02:01 complexed with … (HLA-PEPTIDE target G8) (human); experiment: MSD specificity ratio; threshold for selection of the 12 hit clones of Table 14
T3 construct: Soluble biotinylated pHLA coupled to U-PLEX linker 1 in the MSD assay; also called pHLA target
Method: G8 scFv screening was conducted using the Meso Scale Discovery U-PLEX Development Pack, 9-assay (cat. No. K15234N). The pack contains a 10-spot U-PLEX plate with 9 activated spots and 9 unique linkers as well as stop solution and read buffer. Biotinylated pHLA and biotinylated Protein L were each diluted to 33 nM using PBS+0.5% BSA. For each plate, 200 μL of the diluted pHLA or protein L was mixed with 300 μL of the corresponding Linker (see Table 9) and incubated at room temperature for 30 minutes.
Following the 30-minute incubation, 200 μL stop solution was added to each linker-pHLA solution. They were again incubated for 30 minutes at room temperature. These volumes were scaled based on the number of plates. The linker-pHLA solutions were then a 10× solution. They were then pooled together and further diluted with stop solution to the final 1× concentration. For example, for one plate with one linker, 600 μL pHLA would be diluted with 5.4 mL stop solution for the 1× concentration with a total volume of 6 mL. For one plate using 8 linkers, 600 μL of each linker was pooled to give 4.8 mL volume and 1.2 mL additional stop solution added for the final 6 mL volume. All volumes were scaled for additional plates. The pooled linker-pHLA solution was then coated onto the 10-spot plate as 50 μL/well, the plate sealed and stored at 4° C. overnight.
Samples, periplasmic extracts (PPE) were diluted 40-fold with PBS+1% BSA. The plate was washed 3 times with PBS+0.05% Tween and samples added as 50 μL/well. Plates were incubated at room temperature shaking for 2 hours. The plates were washed as before and 50 μL of 1 μg/mL SulfoTag anti-Myc tag (Abcam, ab206486) was added to each well. The anti-Myc tag antibody was sulfo-tag labeled using the MSD Gold Sulfo-tag NHS-Ester Conjugation kit (Meso Scale Discovery, R31AA-2) at a challenge ratio of 10. The plates were incubated for 1 hour shaking at room temperature. The plate wash was repeated and 150 μL 2× Read Buffer T (Meso Scale Discovery, R92TC-2) was added to all wells and the plate read immediately on the Quickplex SQ 120.

T2 sequence (P07766 23-207): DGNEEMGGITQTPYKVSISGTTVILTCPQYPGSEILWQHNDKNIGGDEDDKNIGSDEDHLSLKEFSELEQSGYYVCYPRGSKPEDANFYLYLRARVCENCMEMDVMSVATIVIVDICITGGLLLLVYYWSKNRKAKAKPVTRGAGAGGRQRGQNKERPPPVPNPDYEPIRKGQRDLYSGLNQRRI

Binder | target/OTLA specificity [3] [ratio] | other results
5G06NT Format 41 diabody bispecific antibody (anti-G8 x anti-CD3) (bispecific antibody, V domains shown) VH: EVQLLESGGGLVQPGGSLRLSCAASGFTFSDYYMSWVRQAPGKGLEWVSGINWPGGSTGYADSVKGRFTISRDNSKNTLYLQMNSLRAEDTAVYYCARVEQGYDIYYFYYMDVWGKGTTVTVSS VL: DIQMTQSPSSLSASVGDRVTITCRASQSISSYLNWYQQKPGKAPKLLIYKASSLESGVPSRFSGSGSGTDFTLTISSLQPEDFATYYCQQSYSAPYTFGPGTKVDIK | – | EC 50 (nM), cytotoxicity of A375 FoxE1 cells [1]: 0.08 nM; EC50 (CD3 on CD3+ Jurkat cells): 41 nM; EC50 [2]: 0.11 nM
05A03 scFv (scFv, V domains shown, As m4: periplasmic-extract scFv) VH: EVQLLESGGGLVQPGGSLRLSCAASGYTFSDYYMSWVRQAPGKGLEWVSGINWPGGSTGYADSVKGRFTISRDNSKNTLYLQMNSLRAEDTAVYYCARVEQGYDIYYYYYMDVWGKGTTVTVSS VL: DIQMTQSPSSLSASVGDRVTITCRASQSISSYLNWYQQKPGKAPKLLIYKASSLESGVPSRFSGSGSGTDFTLTISSLQPEDFATYYCQQSYSAPYTFGPGTKVDIK | > 50 | –
05A08 scFv (scFv, V domains shown, As m4: periplasmic-extract scFv) VH: EVQLLESGGGLVQPGGSLRLSCAASGYTFSDYYMSWVRQAPGKGLEWVGNINWNGGSTLYADSVKGRFTISRDNSKNTLYLQMNSLRAEDTAVYYCARVEQGYDNYYYYYMDVWGKGTTVTVSS VL: DIQMTQSPSSLSASVGDRVTITCRASQSISSYLNWYQQKPGKAPKLLIYKASSLESGVPSRFSGSGSGTDFTLTISSLQPEDFATYYCQQSYSAPYTFGPGTKVDIK | > 50 | –
05C04 scFv (scFv, V domains shown, As m4: periplasmic-extract scFv) VH: EVQLLESGGGLVQPGGSLRLSCAASGYTFSDYYMSWVRQAPGKGLEWVSGINWPGGYTGYADSVKGRFTISRDNSKNTLYLQMNSLRAEDTAVYYCARVEQGYDIYYYYYMDVWGKGTTVTVSS VL: DIQMTQSPSSLSASVGDRVTITCRASQSISSYLNWYQQKPGKAPKLLIYKASSLESGVPSRFSGSGSGTDFTLTISSLQPEDFATYYCQQSYSAPYTFGPGTKVDIK | > 50 | –
05G06 scFv (scFv, V domains shown, As m4: periplasmic-extract scFv; also called 04A11) VH: EVQLLESGGGLVQPGGSLRLSCAASGFTFSDYYMSWVRQAPGKGLEWVSGINWPGGSTGYADSVKGRFNISRDNSKNTLYLQMNSLRAEDTAVYYCARVEQGYDIYYFYYMDVWGKGTTVTVSS VL: DIQMTQSPSSLSASVGDRVTITCRASQSISSYLNWYQQKPGKAPKLLIYKASSLESGVPSRFSGSGSGTDFTLTISSLQPEDFATYYCQQSYSAPYTFGPGTKVDIK | > 50 | –
05G09 scFv (scFv, V domains shown, As m4; also called 0509) VH: EVQLLESGGGLVQPGGSLRLSCAASGFTFSDYYMSWVRQAPGKGLEWVGGINWPGGSTDYADSVKGRFTISRDNSKNTLYLQMNSLRAEDTAVYYCARVEQGYDIYYYYYMDVWGKGTTVTVSS VL: DIQMTQSPSSLSASVGDRVTITCRASQSISSYLNWYQQKPGKAPKLLIYKASSLESGVPSRFSGSGSGTDFTLTISSLQPEDFATYYCQQSYSAPYTFGPGTKVDIK | > 50 | –
09D01 scFv (scFv, V domains shown, As m4: periplasmic-extract scFv) VH: EVQLLESGGGLVQPGGSLRLSCAASGFTFSDYYMSWVRQAPGKGLEWVSGINWHHGSTGYADSVKGRFTISRDNSKNTLYLQMNSLRAEDTAVYYCARVEQGYDIYYYYYMDVWGKGTTVTVSS VL: DIQMTQSPSSLSASVGDRVTITCRASQSISSYLNWYQQKPGKAPKLLIYKASSLESGVPSRFSGSGSGTDFTLTISSLQPEDFATYYCQQSYSAPYTFGPGTKVDIK | > 50 | –
09D06 scFv (scFv, V domains shown, As m4: periplasmic-extract scFv) VH: EVQLLESGGGLVQPGGSLRLSCAASGFTFSDYYMSWVRQAPGKGLEWVSGINWPGSSTGYADSVKGRFTISRDNSKNTLYLQMNSLRAEDTAVYYCARVRQGYDYYYYYYMDVWGKGTTVTVSS VL: DIQMTQSPSSLSASVGDRVTITCRASQSISSYLNWYQQKPGKAPKLLIYKASSLESGVPSRFSGSGSGTDFTLTISSLQPEDFATYYCQQSYSAPYTFGPGTKVDIK | > 50 | –
09G01 scFv (scFv, V domains shown, As m4: periplasmic-extract scFv) VH: EVQLLESGGGLVQPGGSLRLSCAASGFTFSDYYMSWVRQAPGKGLEWVSVINWPGSSTGYADSVKGRFTISRDNSKNTLYLQMNSLRAEDTAVYYCARVEQGYDIYYYYYMDVWGKGTTVTVSS VL: DIQMTQSPSSLSASVGDRVTITCRASQSISSYLNWYQQKPGKAPKLLIYKASSLESGVPSRFSGSGSGTDFTLTISSLQPEDFATYYCQQSYSAPYTFGPGTKVDIK | > 50 | –
1B03 (G8-1B03, Parent A) Format 41 diabody bispecific antibody (anti-G8 x anti-CD3) (bispecific antibody, V domains shown) VH: EVQLLESGGGLVQPGGSLRLSCAASGFTFSDYYMSWVRQAPGKGLEWVSGINWNGGSTGYADSVKGRFTISRDNSKNTLYLQMNSLRAEDTAVYYCARVEQGYDIYYYYYMDVWGKGTTVTVSS VL: DIQMTQSPSSLSASVGDRVTITCRASQSISSYLNWYQQKPGKAPKLLIYKASSLESGVPSRFSGSGSGTDFTLTISSLQPEDFATYYCQQSYSAPYTFGPGTKVDIK | – | EC50 (CD3 on CD3+ Jurkat cells): 161 nM; EC50 [2]: 72.8 nM

Reference: patent publication US20230295305A1 (GRITSTONE BIO, published 2023)
